Assay results published in paper PMC11754652.

Molecular target: T1, RheA (RheASal) (Streptomyces albidoflavus J1074) (UniProt O08247)
T1 sequence: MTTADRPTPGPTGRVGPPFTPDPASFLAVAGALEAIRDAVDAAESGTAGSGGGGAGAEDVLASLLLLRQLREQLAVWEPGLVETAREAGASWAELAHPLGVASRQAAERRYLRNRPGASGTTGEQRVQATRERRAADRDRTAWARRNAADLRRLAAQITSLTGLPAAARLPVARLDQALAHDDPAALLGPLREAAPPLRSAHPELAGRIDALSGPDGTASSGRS
Experiment: EMSA
Conditions: 20 mM Tris-HCl pH 7.5, 1 mM DTT, 5 mM MgCl2, 0.5 mg/ml BSA, 5% glycerol, 20 uL, 30 C 25 min, 4.5% native PAGE in 45 mM Tris-HCl pH 8.0, 45 mM boric acid

For “GAGTGAACACCTCCAGAAGTCCAGGCAGTTGATGCCATGCGCTTCGCTTGGCACCGTTGTAACATGTCATCCGAACGATGACAAGCGAGTCGTCGTCCATCGGATGACGACCCGGAGTGATATC (double strand) [RS01 probe (one rheO)]”, which binding is on record?
Its binding is “binds”.
